Measurements reported in publication PMC8978339 (Cancer chemotherapy and pharmacology, 2021).

Molecular target: T1, his-tagged PXRLBD (residues 130-434) (human, UniProt O75469 130-434)
T1 sequence (looked up): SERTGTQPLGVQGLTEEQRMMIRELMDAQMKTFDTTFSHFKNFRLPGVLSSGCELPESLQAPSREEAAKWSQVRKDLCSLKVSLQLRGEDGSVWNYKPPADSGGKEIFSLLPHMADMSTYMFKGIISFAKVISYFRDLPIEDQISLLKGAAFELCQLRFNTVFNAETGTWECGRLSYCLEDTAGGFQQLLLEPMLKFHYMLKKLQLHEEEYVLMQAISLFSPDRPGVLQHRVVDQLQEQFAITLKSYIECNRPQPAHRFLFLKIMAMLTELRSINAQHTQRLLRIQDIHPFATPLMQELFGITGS
Experiment: pull-down

B1: SRC186 (human SRC-1 fragment, residues 595-780) (domain or fragment, UniProt Q15788 595-780, looked up)
chain: MIQSDNSSSDGKPLDSGLLHNNDRLSDGDSKYSQTSHKLVQLLTTTAEQQLRHADIDTSCKDVLSCTGTSNSASANSSGGSCPSSHSSLTERHKILHRLLQEGSPSDITTLSVEPDKKDSASTSVSVTGQVQGNSSIKLELDASKKKESKDHQLLRYLLDKDEKDLRSTPNLSLDDVKVKVEKKEQ
modifications: biotin (labeled with biotin reagent)
binding result: binds
